# Where “and” joins values, the source holds several entries; their conditions need not be identical. Equal entries are not always repeated. Where two headings read alike, the source gives them in different places.
# B1: AtSerpin1 (wild-type Serpin1 from Arabidopsis thaliana, At1g47710), recombinant HIS6-tagged (protein, not shown: small tags and cut ends)
# chain: MDVRESISLQNQVSMNLAKHVITTVSQNSNVIFSPASINVVLSIIAAGSAGATKDQILSFLKFSSTDQLNSFSSEIVSAVLADGSANGGPKLSVANGAWIDKSLSFKPSFKQLLEDSYKAASNQADFQSKAVEVIAEVNSWAEKETNGLITEVLPEGSADSMTKLIFANALYFKGTWNEKFDESLTQEGEFHLLDGNKVTAPFMTSKKKQYVSAYDGFKVLGLPYLQGQDKRQFSMYFYLPDANNGLSDLLDKIVSTPGFLDNHIPRRQVKVREFKIPKFKFSFGFDASNVLKGLGLTSPFSGEEGLTEMVESPEMGKNLCVSNIFHKACIEVNEEGTEAAAASAGVIKLRGLLMEEDEIDFVADHPFLLVVTENITGVVLFIGQVVDPLH
# What was measured:
# Test in all cases: cell-based or functional assay
# [1] = molecular target: cysteine-like cathepsin-L protease activities from extracts of adults of Tribolium castaneum (red flour beetle) (Tribolium castaneum)
# [2] = molecular target: cysteine-like cathepsin-L protease activities from extracts of adults of Tetranychus urticae (spider mites) (Tetranychus urticae)
# [3] = molecular target: serine-like chymotrypsin protease activities from Spodoptera littoralis (cotton leafworm) larval gut extracts (Spodoptera littoralis)
# [4] = molecular target: serine-like elastase protease activities from Ostrinia nubilalis (European corn borer) larval gut extracts (Ostrinia nubilalis)
# [5] = molecular target: serine-like trypsin protease activities from Ostrinia nubilalis (European corn borer) larval gut extracts (Ostrinia nubilalis)
# [6] = molecular target: cysteine-like cathepsin-B protease activities from Leptinotarsa decemlineata (Colorado potato beetle) gut extracts (Leptinotarsa decemlineata)
# [7] = molecular target: serine-like chymotrypsin protease activities from Sesamia nonagrioides (Mediterranean corn borer) larval gut extracts (Sesamia nonagrioides)
# [8] = molecular target: serine-like trypsin protease activities from Spodoptera littoralis (cotton leafworm) larval gut extracts (Spodoptera littoralis)
# [9] = molecular target: cysteine-like cathepsin-B protease activities from extracts of adults of Acyrthosiphon pisum (pea aphid) (Acyrthosiphon pisum)
# [10] = molecular target: cysteine-like cathepsin-L protease activities from extracts of adults of Bemisia tabaci (sweetpotato whitefly) (Bemisia tabaci)
# [11] = molecular target: cysteine-like cathepsin-L protease activities from extracts of adults of Acyrthosiphon pisum (pea aphid) (Acyrthosiphon pisum)
# [12] = molecular target: cysteine-like cathepsin-L protease activities from Leptinotarsa decemlineata (Colorado potato beetle) gut extracts (Leptinotarsa decemlineata)
# [13] = molecular target: serine-like trypsin protease activities from Sesamia nonagrioides (Mediterranean corn borer) larval gut extracts (Sesamia nonagrioides)
# [14] = molecular target: cysteine-like cathepsin-L protease activities from extracts of adults of Tribolium castaneum (red flour beetle) (Tribolium castaneum); remark: listed apart in the source
# [15] = molecular target: cysteine-like cathepsin-L protease activities from extracts of adults of Tetranychus urticae (spider mites) (Tetranychus urticae); remark: listed apart in the source
# [16] = molecular target: serine-like chymotrypsin protease activities from Spodoptera littoralis (cotton leafworm) larval gut extracts (Spodoptera littoralis); remark: listed apart in the source
# [17] = molecular target: serine-like trypsin protease activities from Sesamia nonagrioides (Mediterranean corn borer) larval gut extracts (Sesamia nonagrioides); remark: listed apart in the source
# [18] = molecular target: serine-like trypsin protease activities from Ostrinia nubilalis (European corn borer) larval gut extracts (Ostrinia nubilalis); remark: listed apart in the source
# [19] = molecular target: cysteine-like cathepsin-B protease activities from Leptinotarsa decemlineata (Colorado potato beetle) gut extracts (Leptinotarsa decemlineata); remark: listed apart in the source
# [20] = molecular target: serine-like trypsin protease activities from Spodoptera littoralis (cotton leafworm) larval gut extracts (Spodoptera littoralis); remark: listed apart in the source
# [21] = molecular target: cysteine-like cathepsin-B protease activities from extracts of adults of Acyrthosiphon pisum (pea aphid) (Acyrthosiphon pisum); remark: listed apart in the source
# [22] = molecular target: cysteine-like cathepsin-L protease activities from extracts of adults of Bemisia tabaci (sweetpotato whitefly) (Bemisia tabaci); remark: listed apart in the source
# [23] = molecular target: cysteine-like cathepsin-L protease activities from extracts of adults of Acyrthosiphon pisum (pea aphid) (Acyrthosiphon pisum); remark: listed apart in the source
# [24] = molecular target: cysteine-like cathepsin-L protease activities from Leptinotarsa decemlineata (Colorado potato beetle) gut extracts (Leptinotarsa decemlineata); remark: listed apart in the source
molecule,measurement,setting,value
AtSerpin1 mutant IKLA (SEQ ID NO:3) (from UniProt Q9S7T8 1-391),"% Inhibition, Cathepsin-L, 0.08 µM serpin",[1],12%
same,"% Inhibition, Cathepsin-L, 0.16 µM serpin",[1],32%
same,"% Inhibition, Cathepsin-L, 0.31 µM serpin",[1],57%
same,"% Inhibition, Cathepsin-L, 0.63 µM serpin",[1],63%
same,"% Inhibition, Cathepsin-L, 1.25 µM serpin",[1],68%
same,"% Inhibition, Cathepsin-L, 2.5 µM serpin",[1],68%
same,"% Inhibition, Cathepsin-L, 5 µM serpin",[1],72%
same,"% Inhibition, Cathepsin-L, 10 µM serpin",[1],70%
same,"% Inhibition, Cathepsin-L, 20 µM serpin",[1],76%
same,IC50 of cathepsin-L activity inhibition (FIG. 4),[1],0.2 to 0.3 µM
same,"fold activity against AtSerpin1, cathepsin-L inhibition (FIG. 4)",[1],> 10 times
same,"% Inhibition, Cathepsin-L, 0.02 µM serpin",[2],9%
same,"% Inhibition, Cathepsin-L, 0.04 µM serpin",[2],11%
same,"% Inhibition, Cathepsin-L, 0.08 µM serpin",[2],12%
same,"% Inhibition, Cathepsin-L, 0.16 µM serpin",[2],22%
same,"% Inhibition, Cathepsin-L, 0.31 µM serpin",[2],33%
same,"% Inhibition, Cathepsin-L, 0.63 µM serpin",[2],44%
same,"% Inhibition, Cathepsin-L, 1.25 µM serpin",[2],51%
same,"% Inhibition, Cathepsin-L, 2.5 µM serpin",[2],59%
same,"% Inhibition, Cathepsin-L, 5 µM serpin",[2],71%
same,"% Inhibition, Cathepsin-L, 10 µM serpin",[2],75%
same,"% Inhibition, Cathepsin-L, 20 µM serpin",[2],79%
same,IC50 of cathepsin-L activity inhibition (FIG. 7),[2],< 1 µM
same,"fold activity against AtSerpin1, cathepsin-L inhibition (FIG. 7)",[2],2 times and 3 times
same,"% Inhibition, Chymotrypsin, 1.25 µM serpin",[3],11%
same,"% Inhibition, Chymotrypsin, 5 µM serpin",[3],41%
same,"% Inhibition, Chymotrypsin, 10 µM serpin",[3],56%
same,"% Inhibition, Elastase, 2 µM serpin",[4],21%
same,"% Inhibition, Trypsin, 2 µM serpin",[5],51%
same,"% Inhibition, Cathepsin-B, 1.25 µM serpin",[6],62%
same,"% Inhibition, Cathepsin-B, 5 µM serpin",[6],77%
same,"% Inhibition, Cathepsin-B, 10 µM serpin",[6],70%
same,"% Inhibition, Chymotrypsin, 5 µM serpin",[7],32%
same,"% Inhibition, Chymotrypsin, 10 µM serpin",[7],70%
same,"% Inhibition, Trypsin, 1.25 µM serpin",[8],18%
same,"% Inhibition, Trypsin, 5 µM serpin",[8],32%
same,"% Inhibition, Trypsin, 10 µM serpin",[8],40%
same,"% Inhibition, Cathepsin-B, 1.25 µM serpin",[9],24%
same,"% Inhibition, Cathepsin-B, 5 µM serpin",[9],31%
same,"% Inhibition, Cathepsin-B, 10 µM serpin",[9],36%
same,"% Inhibition, Cathepsin-L, 0.16 µM serpin",[10],3%
same,"% Inhibition, Cathepsin-L, 0.31 µM serpin",[10],10%
same,"% Inhibition, Cathepsin-L, 0.63 µM serpin",[10],15%
same,"% Inhibition, Cathepsin-L, 1.25 µM serpin",[10],27%
same,"% Inhibition, Cathepsin-L, 2.5 µM serpin",[10],38%
same,"% Inhibition, Cathepsin-L, 5 µM serpin",[10],48%
same,"% Inhibition, Cathepsin-L, 10 µM serpin",[10],60%
same,"% Inhibition, Cathepsin-L, 20 µM serpin",[10],70%
same,IC50 of cathepsin-L activity inhibition (FIG. 6),[10],5 µM
same,"fold activity against AtSerpin1, cathepsin-L inhibition (FIG. 6)",[10],5 times and 10 times
same,"% Inhibition, Cathepsin-L, 1.25 µM serpin",[11],24%
same,"% Inhibition, Cathepsin-L, 5 µM serpin",[11],34%
same,"% Inhibition, Cathepsin-L, 10 µM serpin",[11],45%
same,"% Inhibition, Cathepsin-L, 1.25 µM serpin",[12],18%
same,"% Inhibition, Cathepsin-L, 5 µM serpin",[12],44%
same,"% Inhibition, Cathepsin-L, 10 µM serpin",[12],66%
AtSerpin1 mutant IRPR (SEQ ID NO:5) (from UniProt Q9S7T8 1-391),"% Inhibition, Cathepsin-L, 1.25 µM serpin",[1],73%
same,"% Inhibition, Cathepsin-L, 1.25 µM serpin",[2],11%
same,"% Inhibition, Trypsin, 1.25 µM serpin",[13],38%
same,"% Inhibition, Cathepsin-B, 1.25 µM serpin",[9],32%
same,"% Inhibition, Cathepsin-L, 1.25 µM serpin",[11],31%
AtSerpin1 mutant VRPR (SEQ ID NO:4) (from UniProt Q9S7T8 1-391),"% Inhibition, Cathepsin-L, 1.25 µM serpin",[1],38%
same,"% Inhibition, Cathepsin-L, 1.25 µM serpin",[2],22%
same,"% Inhibition, Trypsin, 5 µM serpin",[8],33%
same,"% Inhibition, Trypsin, 10 µM serpin",[8],34%
same,"% Inhibition, Cathepsin-B, 1.25 µM serpin",[9],27%
same,"% Inhibition, Cathepsin-B, 5 µM serpin",[9],14%
same,"% Inhibition, Cathepsin-B, 10 µM serpin",[9],23%
same,"% Inhibition, Cathepsin-L, 1.25 µM serpin",[11],16%
AtSerpin1 mutant IKLK (SEQ ID NO:7) (from UniProt Q9S7T8 1-391),"% Inhibition, Trypsin, 5 µM serpin",[8],64%
same,"% Inhibition, Trypsin, 10 µM serpin",[8],69%
same,"% Inhibition, Cathepsin-B, 5 µM serpin",[9],49%
same,"% Inhibition, Cathepsin-B, 10 µM serpin",[9],66%
AtSerpin1 mutant WRHR (SEQ ID NO:6) (from UniProt Q9S7T8 1-391),"% Inhibition, Cathepsin-L, 1.25 µM serpin",[2],8%
same,"% Inhibition, Cathepsin-B, 1.25 µM serpin",[9],26%
B1,"% Inhibition, Cathepsin-L, 2.5 µM serpin",[14],16%
same,"% Inhibition, Cathepsin-L, 5 µM serpin",[14],68%
same,"% Inhibition, Cathepsin-L, 10 µM serpin",[14],73%
same,"% Inhibition, Cathepsin-L, 20 µM serpin",[14],76%
same,IC50 of cathepsin-L activity inhibition (FIG. 4),[14],4 µM
same,"% Inhibition, Cathepsin-L, 0.16 µM serpin",[15],10%
same,"% Inhibition, Cathepsin-L, 0.31 µM serpin",[15],13%
same,"% Inhibition, Cathepsin-L, 0.63 µM serpin",[15],17%
same,"% Inhibition, Cathepsin-L, 1.25 µM serpin",[15],32%
same,"% Inhibition, Cathepsin-L, 2.5 µM serpin",[15],48%
same,"% Inhibition, Cathepsin-L, 5 µM serpin",[15],58%
same,"% Inhibition, Cathepsin-L, 10 µM serpin",[15],67%
same,"% Inhibition, Cathepsin-L, 20 µM serpin",[15],73%
same,concentration for 50% inhibition of cathepsin-L activity (FIG. 7),[15],2 µM
same,"% Inhibition, Chymotrypsin, 1.25 µM serpin",[16],10%
same,"% Inhibition, Chymotrypsin, 5 µM serpin",[16],31%
same,"% Inhibition, Chymotrypsin, 10 µM serpin",[16],40%
same,concentration for 50% inhibition of chymotrypsin activity (FIG. 1),[16],10 to 20 µM
same,"% Inhibition, Trypsin, 1.25 µM serpin",[17],90%
same,"% Inhibition, Trypsin, 5 µM serpin",[17],97%
same,"% Inhibition, Trypsin, 10 µM serpin",[17],98%
same,concentration for 50% inhibition of trypsin activity (FIG. 2),[17],0.1 µM
same,"% Inhibition, Trypsin, 2 µM serpin",[18],28%
same,"% Inhibition, Cathepsin-B, 1.25 µM serpin",[19],40%
same,"% Inhibition, Cathepsin-B, 5 µM serpin",[19],47%
same,"% Inhibition, Cathepsin-B, 10 µM serpin",[19],46%
same,concentration for 50% inhibition of cathepsin-B activity (FIG. 3),[19],> 10 µM
same,"% Inhibition, Trypsin, 1.25 µM serpin",[20],52%
same,"% Inhibition, Trypsin, 5 µM serpin",[20],83%
same,"% Inhibition, Trypsin, 10 µM serpin",[20],90%
same,"concentration for 50% inhibition of trypsin activity (fluorometric substrate, FIG. 1)",[20],1 µM
same,"% Inhibition, Cathepsin-B, 1.25 µM serpin",[21],50%
same,"% Inhibition, Cathepsin-B, 5 µM serpin",[21],55%
same,"% Inhibition, Cathepsin-B, 10 µM serpin",[21],55%
same,concentration for 50% inhibition of cathepsin-B activity (FIG. 5),[21],1 µM
same,"% Inhibition, Cathepsin-L, 2.5 µM serpin",[22],7%
same,"% Inhibition, Cathepsin-L, 5 µM serpin",[22],20%
same,"% Inhibition, Cathepsin-L, 10 µM serpin",[22],34%
same,"% Inhibition, Cathepsin-L, 20 µM serpin",[22],43%
same,% inhibition of cathepsin-L activity at 20 µM serpin (FIG. 6),[22],45%
same,"% Inhibition, Cathepsin-L, 1.25 µM serpin",[23],42%
same,"% Inhibition, Cathepsin-L, 5 µM serpin",[23],42%
same,"% Inhibition, Cathepsin-L, 10 µM serpin",[23],39%
same,"inhibition of cathepsin-L activity, plateau (FIG. 5)",[23],40%
same,"% Inhibition, Cathepsin-L, 1.25 µM serpin",[24],4%
same,"% Inhibition, Cathepsin-L, 5 µM serpin",[24],34%
same,"% Inhibition, Cathepsin-L, 10 µM serpin",[24],48%
same,"concentration for 50% inhibition of cathepsin-L activity (fluorometric substrates, FIG. 3)",[24],10 µM

# From patent US20100333236A1
